± gives the standard deviation of the averaged measurements.
Test system: ATP
Experiment: switch fluorescence ratio, 500 uM ATP over buffer (Cy3 cluster intensity, sum of 5 cycles each) (fold (ratio)); higher = stronger signal-on switching upon ATP binding; sequences stand for … in TCGTCGGCAGCGTCAGATGTGTATAAGAGACAGTTTTTTTTTTTTTTTTTTTTTTTTT…TC
Details: aptamer strand: ATP DNA aptamer (quencher-CACCTGGGGGAGTATTGCGGAGGAAGG + anchor), 100 nM annealed; ATP concentration: 500 uM
Method in brief: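 The quencher-labelled ATP aptamer, at 100 nM, was annealed to Cy3-labelled switching-strand clusters on a modified Illumina MiSeq flow-cell. The clusters were imaged in selection buffer, then after 15 min with 500 uM ATP at 22 °C, and this buffer/ATP cycle ran five times with NaOH stripping and re-annealing between runs. Per-cluster fluorescence ratios, summed target-cycle over summed buffer-cycle Cy3 intensity, were averaged per switch-domain sequence. Clusters outside 100-1000 RFU were excluded.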
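Note: ATP exposure 15 min at 22 °C before imaging.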

| Sequence | switch fluorescence ratio |
| --- | --- |
| AAATTGTCGT | 0.977 ± 0.042 |
| AAATTTACCT | 1.42 ± 0.072 |
| AAATTTATTA | 1.03 ± 0.037 |
| AAATTTATTT | 0.9932 ± 0.0038 |
| AAATTTGAAG | 1.02 ± 0.012 |
| AAATTTGGGT | 1.01 ± 0.013 |
| AAATTTGTGT | 0.999 ± 0.051 |
| AAATTTGTTG | 0.992 ± 0.011 |
| AAATTTTAAT | 0.979 ± 0.04 |
| AAATTTTGGG | 1 ± 0.019 |
| AACAGACCTT | 1.13 ± 0.12 |
| AACAGCAATT | 1.27 ± 0.35 |
| AACAGGGGAG | 1.03 ± 0.03 |
| AACAGGGGGC | 1.04 ± 0.023 |
| AACAGGGTCT | 0.991 ± 0.038 |
| AACAGTGAAA | 1.02 ± 0.02 |
| AACAGTTTTT | 0.989 ± 0.044 |
| AACATATCGG | 1.02 ± 0.029 |
| AACATCGTTT | 1.02 ± 0.019 |
| AACATGGGGA | 0.976 ± 0.025 |
| AACATTATTT | 1.022 ± 0.0014 |
| AACATTGGGG | 1.02 ± 0.024 |
| AACCAATAGC | 1.1 ± 0.035 |
| AACCAGAAAT | 0.992 ± 0.01 |
| AACCAGGACT | 1.02 ± 0.013 |

| Sequence | switch fluorescence ratio |
| --- | --- |
| AACCAGTGCG | 1.08 ± 0.032 |
| AACCCAACGA | 1.27 ± 0.025 |
| AACCCATGCT | 1.05 ± 0.064 |
| AACCCCCGTT | 1.07 ± 0.09 |
| AACCCTTTGC | 1.04 ± 0.016 |
| AACCGCGATG | 2.25 ± 0.1 |
| AACCTATGGT | 0.978 ± 0.0042 |
| AACCTCCGTT | 1.71 ± 0.064 |
| AACCTGTCGC | 1.3964 ± 0.0013 |
| AACCTTAGGA | 1.05 ± 0.017 |
| AACCTTATTT | 0.9965 ± 0.0022 |
| AACCTTGACG | 1.07 ± 0.047 |
| AACCTTGGGG | 1.11 ± 0.079 |
| AACGAATTAG | 1.04 ± 0.038 |
| AACGACAATT | 1.118 ± 0.0016 |
| AACGACTTGT | 1.01 ± 0.037 |
| AACGAGAAGC | 0.9895 ± 0.004 |
| AACGCATGTG | 1 ± 0.039 |
| AACGCCTTCG | 1.177 ± 0.011 |
| AACGCGAACG | 1.06 ± 0.016 |
| AACGCGAGTA | 0.986 ± 0.03 |
| AACGCGTGGG | 1.01 ± 0.003 |
| AACGCTGGCG | 0.966 ± 0.028 |
| AACGGACGCT | 1.16 ± 0.064 |
| AACGGACGGG | 1.27 ± 0.095 |

| Sequence | switch fluorescence ratio |
| --- | --- |
| AACGGAGAGC | 1.034 ± 0.01 |
| AACGGAGTGC | 1 ± 0.045 |
| AACGGCAGGG | 1 ± 0.024 |
| AACGGCTCTC | 0.988 ± 0.043 |
| AACGGGATTA | 0.987 ± 0.047 |
| AACGGGCTTT | 0.969 ± 0.013 |
| AACGGGGTCT | 0.978 ± 0.011 |
| AACGGGTATG | 1.011 ± 0.004 |
| AACGGTCACA | 1.16 ± 0.021 |
| AACGGTCAGA | 1.02 ± 0.05 |
| AACGGTGGGG | 0.992 ± 0.034 |
| AACGGTTGCG | 0.965 ± 0.016 |
| AACGGTTTAA | 1.05 ± 0.014 |
| AACGTACTTG | 1.54 ± 0.044 |
| AACGTAGCGG | 1.07 ± 0.03 |
| AACGTAGGGA | 1.93 ± 1.2 |
| AACGTAGTCG | 1.031 ± 0.0046 |
| AACGTCTCGA | 1.01 ± 0.025 |
| AACGTGAGTG | 1.02 ± 0.011 |
| AACGTGCCTG | 0.979 ± 0.077 |
| AACGTGCGTG | 0.9973 ± 0.0028 |
| AACGTGTGGG | 0.996 ± 0.1 |
| AACGTTAGGA | 1.03 ± 0.051 |
| AACGTTATAA | 1.05 ± 0.02 |
| AACGTTCATG | 1.02 ± 0.044 |

| Sequence | switch fluorescence ratio |
| --- | --- |
| AACGTTTAGG | 1.015 ± 0.0099 |
| AACGTTTTCT | 0.991 ± 0.012 |
| AACTAGAGAC | 0.975 ± 0.01 |
| AACTAGAGGG | 0.98 ± 0.017 |
| AACTATAATG | 0.997 ± 0.044 |
| AACTATGCAG | 1.02 ± 0.017 |
| AACTCGGAAT | 1.03 ± 0.028 |
| AACTCGTGGG | 0.975 ± 0.026 |
| AACTCTAGCA | 1.073 ± 0.0052 |
| AACTCTTAAG | 1.03 ± 0.02 |
| AACTCTTCTT | 1.04 ± 0.035 |
| AACTGAAGTC | 0.976 ± 0.01 |
| AACTGAGATT | 1.02 ± 0.024 |
| AACTGATTTC | 0.963 ± 0.03 |
| AACTGCAACA | 1.22 ± 0.031 |
| AACTGGGGGG | 1 ± 0.045 |
| AACTGTATAT | 1.15 ± 0.019 |
| AACTGTCAGA | 0.9903 ± 0.0036 |
| AACTGTTGTA | 0.986 ± 0.0024 |
| AACTTAGTAT | 1.018 ± 0.01 |
| AACTTATTTT | 1 ± 0.003 |
| AACTTGGCGC | 1.01 ± 0.057 |
| AACTTGGGTG | 1.02 ± 0.035 |
| AACTTTAGGG | 0.997 ± 0.039 |
| AACTTTATGA | 1.02 ± 0.01 |

| Sequence | switch fluorescence ratio |
| --- | --- |
| AACTTTGTGC | 1 ± 0.055 |
| AACTTTTACG | 1.074 ± 0.0069 |
| AACTTTTCAT | 1.02 ± 0.02 |
| AACTTTTGCT | 1.03 ± 0.066 |
| AACTTTTTAA | 1.01 ± 0.012 |
| AAGAAAATAC | 1 ± 0.024 |
| AAGAAAGGGG | 0.979 ± 0.034 |
| AAGAAAGGTC | 0.994 ± 0.12 |
| AAGAAATTTG | 0.992 ± 0.015 |
| AAGAACTATG | 1.02 ± 0.034 |
| AAGAACTTGC | 0.982 ± 0.053 |
| AAGAAGGAGG | 1.01 ± 0.029 |
| AAGAAGTGTA | 1.006 ± 0.0083 |
| AAGAATATCA | 1.02 ± 0.016 |
| AAGACGATGT | 0.995 ± 0.013 |
| AAGACGGGGT | 1.01 ± 0.049 |
| AAGACTGTTT | 0.954 ± 0.026 |
| AAGACTTCTT | 0.98673 ± 0.00038 |
| AAGACTTGTG | 0.981 ± 0.019 |
| AAGAGACAGG | 1.05 ± 0.042 |
| AAGAGAGGCA | 1.02 ± 0.023 |
| AAGAGATACG | 1.04 ± 0.059 |
| AAGAGATTTG | 0.981 ± 0.018 |
| AAGAGCAGGG | 0.975 ± 0.011 |
| AAGAGCCATC | 0.9527 ± 0.009 |

| Sequence | switch fluorescence ratio |
| --- | --- |
| AAGAGCCGCG | 1.03 ± 0.045 |
| AAGAGCGAAG | 1.01 ± 0.014 |
| AAGAGCGAGG | 0.945 ± 0.036 |
| AAGAGCTAGT | 1 ± 0.013 |
| AAGAGGAGAG | 1.036 ± 0.0073 |
| AAGAGGGCCT | 1.01 ± 0.037 |
| AAGAGGGCTT | 0.994 ± 0.016 |
| AAGAGGGGTG | 1.01 ± 0.025 |
| AAGAGGGTAT | 0.9835 ± 0.0065 |
| AAGAGGTGAA | 0.987 ± 0.013 |
| AAGAGGTGGA | 1.028 ± 0.0098 |
| AAGAGTGTGG | 1.02 ± 0.058 |
| AAGAGTTCCT | 1.03 ± 0.032 |
| AAGAGTTCGT | 0.955 ± 0.023 |
| AAGATAGAAC | 0.9783 ± 0.0068 |
| AAGATCACTT | 0.979 ± 0.041 |
| AAGATCTCGC | 0.994 ± 0.025 |
| AAGATCTTAT | 1.01 ± 0.031 |
| AAGATGCAGC | 1.05 ± 0.12 |
| AAGATGGAGG | 0.973 ± 0.037 |
| AAGATGGGGA | 1.01 ± 0.016 |
| AAGATTCGCG | 0.9914 ± 0.0014 |
| AAGATTGAGC | 0.937 ± 0.022 |
| AAGATTTAAG | 1.02 ± 0.014 |
| AAGATTTCGG | 1.015 ± 0.0084 |

| Sequence | switch fluorescence ratio |
| --- | --- |
| AAGATTTGAG | 0.992 ± 0.01 |
| AAGCAGGGGA | 1.05 ± 0.032 |
| AAGCATGGGA | 1.01 ± 0.022 |
| AAGCCCGCAC | 1.879 ± 0.0067 |
| AAGCCGGCTA | 1.03 ± 0.023 |
| AAGCCGTAGG | 0.991 ± 0.044 |
| AAGCCGTGTC | 1.01 ± 0.031 |
| AAGCGGCTCG | 0.996 ± 0.03 |
| AAGCGGGG | 1.006 ± 0.002 |
| AAGCGGGGAA | 1.02 ± 0.03 |
| AAGCGGGGAG | 1.04 ± 0.04 |
| AAGCGGGGGT | 1.02 ± 0.026 |
| AAGCGTCTCA | 0.997 ± 0.011 |
| AAGCGTCTGG | 1.02 ± 0.024 |
| AAGCGTTTTT | 1.018 ± 0.0045 |
| AAGCTAAAAT | 0.996 ± 0.053 |
| AAGCTAATTT | 1.01 ± 0.011 |
| AAGCTCGTGC | 0.973 ± 0.089 |
| AAGCTTATAT | 0.9999 ± 0.0089 |
| AAGCTTATGC | 1.04 ± 0.085 |
| AAGCTTGTGT | 0.997 ± 0.069 |
| AAGCTTTCGT | 1.03 ± 0.014 |
| AAGGAAGCCG | 1.06 ± 0.044 |
| AAGGACACGG | 1.042 ± 0.01 |
| AAGGACCCCT | 1.06 ± 0.026 |

| Sequence | switch fluorescence ratio |
| --- | --- |
| AAGGACGCCA | 1.05 ± 0.028 |
| AAGGACGGGG | 0.974 ± 0.011 |
| AAGGACGGTG | 1.0045 ± 0.00079 |
| AAGGAGAAGA | 0.993 ± 0.01 |
| AAGGAGCTTG | 0.9735 ± 0.0038 |
| AAGGAGGGGT | 0.9968 ± 0.0081 |
| AAGGAGGGTG | 1.02 ± 0.019 |
| AAGGAGTAGC | 1.04 ± 0.095 |
| AAGGATCGTT | 1 ± 0.018 |
| AAGGATTAAC | 0.985 ± 0.032 |
| AAGGCACAAG | 1 ± 0.021 |
| AAGGCACCGT | 1.03 ± 0.038 |
| AAGGCAGGGC | 0.972 ± 0.04 |
| AAGGCCTATA | 0.998 ± 0.0088 |
| AAGGCGACGT | 0.994 ± 0.015 |
| AAGGCGGGTA | 1 ± 0.021 |
| AAGGCGGGTG | 1.01 ± 0.015 |
| AAGGCGTTTT | 1.01 ± 0.018 |
| AAGGCTAATT | 0.979 ± 0.033 |
| AAGGCTGGTG | 1.02 ± 0.015 |
| AAGGCTTGGG | 0.992 ± 0.048 |
| AAGGGAAACA | 1.04 ± 0.072 |
| AAGGGACAGT | 1.03 ± 0.016 |
| AAGGGACGGC | 0.9648 ± 0.0078 |
| AAGGGACTGC | 0.97 ± 0.018 |
